One data set in a line: GST activity toward CDNB. In kind it is biochemical. Conditions: recombinant wheat GST expressed in E. coli, affinity purified.
The nature of data set [1]: GST activity toward herbicide metolachlor (HPLC-based assay). In kind it is biochemical. Particulars: recombinant wheat GST expressed in E. coli, affinity purified; ± standard error.
The nature of data set [2]: GST activity toward benzyl isothiocyanate. In kind it is biochemical. Conditions: recombinant wheat GST, affinity purified; ± standard error. As for the experimental part: (§1) To assay the recombinant fusion proteins for GST activity, the E. coli were grown in the presence of IPTG and then pelleted by centrifugation. The bacteria were then lysed by sonication and the protein precipitated using 80% ammonium sulphate. After resuspension and desalting, GSTs were purified by affinity chromatography. The WIC 3 fusion protein was purified using sulphobromophthalein-S-glutathione affinity chromatography (Mozer et al. Biochem. 22, 1983, 1068-1072) while the other WIC fusion proteins were purified using glutathione-agarose (Mannervik and Guthenberg. Methods Enzymol. 77 1981, 231-235).The purified enzymes were then assayed for GST activities toward herbicides (Table 3) and GST activities toward non-herbicide substrates and glutathione peroxidase activities toward organic hydroperoxides (Table 4).

Data set [3] can be described thus: GST activity toward herbicide fenoxaprop-ethyl (HPLC-based assay). In kind it is biochemical. Particulars: recombinant wheat GST expressed in E. coli, affinity purified; ± standard error.
A short description of data set [4]: GST activity toward herbicide fluorodifen (HPLC-based assay). In kind it is biochemical. Conditions: recombinant wheat GST expressed in E. coli, affinity purified; ± standard error.
Data set [5] can be described thus: GST activity toward crotonaldehyde. In kind it is biochemical. Particulars: recombinant wheat GST, affinity purified; ± standard error. As for the experimental part: as §1
Data set [6] can be described thus: Glutathione peroxidase activity toward cumene hydroperoxide. In kind it is biochemical. Particulars: recombinant wheat GST, affinity purified; ± standard error (n = 3). On the procedure:
as §1
A polyclonal antiserum was raised in a rabbit to a mixture of TaGST1-2 and TaGST1-3. When tested against crude extracts from safener-treated wheat shoots the antiserum recognised both the 25 kDa TaGST1 subunit and the 26 kDa safener-inducible TaGST2 and TaGST3 subunits. The antiserum was then used in conjunction with the antiserum raised to TaGST1-1 to immuno screen the cDNA library prepared from fenchlorazole ethyl treated wheat shoots as described in example 1. Duplicate lifts were taken from the plated out library and the first blot screened with the antiserum raised against TaGST1-2 and TaGST1-3. The second blot was screened with the antiserum raised to TaGST1-1. Five plaques were identified from the first blot which were absent from the second blot corresponding to cDNAs encoding TaGST2 or TaGST3 like polypeptides and theses clones were purified and the respective plasmids sequenced. […] The other three clones ICC. ICP and ICV had identical DNA sequences (SEQ ID No. 17) and predicted amino acid sequence (SEQ ID No. 18). GST ICJ was sub-cloned into the pET 11a vector after using PCR to introduce a Nde 1 restriction site into the translation start site, using the primer 5′ AGGTAGTTACATATGGCCGGAGGA 3′ (SEQ ID No. 19) in the amplification. following sub-cloning, the sequence of GST ICJ was re-checked to ensure no PCR induced errors had been introduced. The recombinant GST ICJ was then expressed in E. coli and purified by S-hexylglutathione affinity chromatography. The purified GST ICJ was assayed for activities as a GST (Table 3) and as a glutathione peroxidase (Table 4). […] GST ICV was finally expressed as the respective beta-galactosidase fusion protein using the Bluescript plasmid and assayed for GST activity (Table 3 ) and glutathione peroxidase activity (Table 4) in crude bacterial lysates. The specific activity of GST ICV toward these substrates was then calculated by I) subtracting the low levels of GST and GPOX activity present due the endogenous activities in the E. coli and ii) determining the proportion of protein in the lysate present as recombinant GST ICV from SDS-PAGE analysis, by densitometry analysis of polypeptides stained with Coomassie blue.

The nature of data set [7]: GST activity toward ethacrynic acid. In kind it is biochemical. Conditions: recombinant wheat GST, affinity purified; ± standard error; N.D = not detected. As for the experimental part:
as §1

Data set [8] deals with the molecule itself. Kind of data set: subunit composition of purified isoenzymes (anion exchange, reversed-phase HPLC, SDS-PAGE). As for the experimental part: The component polypeptides in the active fractions were then analysed by silver staining after resolution by sodium dodecyl sulphate polyacrylamide gel electrophoresis (SDS-PAGE). It was concluded that in fenchlorazole-ethyl-treated wheat the polar GSTs were composed of 25 kDa and 26 kDa polypeptides, while the hydrophobic fraction contained 25 kDa, 26 kDa and 24 kDa polypeptides. Further analysis by reversed-phase HPLC confirmed the subunit compositions (FIG. 2). Based on the combined analyses by Q-sepharose, HPLC and SDS-PAGE these GST polypeptides were named as described in Table 1, which also contains details of how these subunits associate together to form the active dimers found in plants and the relative abundance of these subunits in extracts from unsafened and fenchlorazole-ethyl treated (safened) plants.

Consider two molecules from patent US6730828B1, “Isolated nucleic acids encoding a wheat glutathione transferase, plants transformed therewith and methods of use thereof” (Aventis Agriculture Limited, priority 1997, dated 2004).

B1: WIC 4: recombinant type I wheat GST, SEQ ID No. 11, amino acid SEQ ID No. 12; coding sequence identical in WIC 10 (protein)
chain: MAPVKVFGPAMSTNVARVLVCLEEVGAEYEVVDIDFKAMEHKSPEHLVRNPFGQIPAFQDGDLLLFESRAIARYVLRKYKKNEVDLLREGDLKEAAMVDVWTEVDAHTYNPAISPIVYECSSTAHARLPTNQTVVDESLEKLKNVLEVYEARLSKHDYLAGDFVSFADLNHFPYTFYFMATPHAALFDSYPHVKAWWERIMARPAVKKLAAQMVPKKP
modifications: Triticum aestivum L.
Regarding B1, the “GST activity toward CDNB” value in the data set “GST activity toward CDNB” came to 980 nkat.mg^−1. Moreover, the “GST activity toward metolachlor” value in [1] is on record as 0.037 ± 0.003 nkat.mg^−1. The “GST activity toward benzyl isothiocyanate” value in data set [2] is 4.2 ± 0.4 nkat.mg^−1. In addition, the “GST activity toward fenoxaprop-ethyl” value in [3] is 0.012 ± 0.001 nkat.mg^−1. Also, in data set [4], the “GST activity toward fluorodifen” value amounted to 0.036 ± 0.004 nkat.mg^−1. Also, in data set [5], the “GST activity toward crotonaldehyde” value is recorded as 5.5 ± 0.6 nkat.mg^−1. Moreover, the “Glutathione peroxidase activity toward cumene hydroperoxide” value in data set [6] is 6.2 ± 0.3 absorbance change at 340 nm.mg^−1. Further, the “GST activity toward ethacrynic acid” value in [7] is listed as 1.4 ± 0.3 nkat.mg^−1.

B2: Triticum aestivum GST 1 subunit (25 kDa) (enzyme)
chain: MAGEKGLVLLDFWVSPFGQRVRIALAEKGLPYEYAEEDLMAGKSDRLLRANPVHKKIPVLLHDGRAVNESLIILQYLEEAFPDAPALLPSDPYARAQARFWADYVDKKVYDCGSRLWKLKGEPQAQARAEMLDILKTLDGALGDKPFFGGDKFGFVDAAFAPFTAWFHSYERYGEFSLPEVAPKIAAWAKRCGERESVAKSLYSPDKVYDFIGLLKKKYGIE
notes: Native subunit in wheat shoot extracts; also called TaGST1
For the molecule B2, the binding result in data set [8] is listed as “binds”.
